Experimental data: paper PMC8893600 (Kidney international, 2021)

Target: p65 protein used for surface plasmon resonance (UniProt Q04206 1-551)
Experiment: SPR

Sequence of p65 protein used for surface plasmon resonance (Q04206 whole entry): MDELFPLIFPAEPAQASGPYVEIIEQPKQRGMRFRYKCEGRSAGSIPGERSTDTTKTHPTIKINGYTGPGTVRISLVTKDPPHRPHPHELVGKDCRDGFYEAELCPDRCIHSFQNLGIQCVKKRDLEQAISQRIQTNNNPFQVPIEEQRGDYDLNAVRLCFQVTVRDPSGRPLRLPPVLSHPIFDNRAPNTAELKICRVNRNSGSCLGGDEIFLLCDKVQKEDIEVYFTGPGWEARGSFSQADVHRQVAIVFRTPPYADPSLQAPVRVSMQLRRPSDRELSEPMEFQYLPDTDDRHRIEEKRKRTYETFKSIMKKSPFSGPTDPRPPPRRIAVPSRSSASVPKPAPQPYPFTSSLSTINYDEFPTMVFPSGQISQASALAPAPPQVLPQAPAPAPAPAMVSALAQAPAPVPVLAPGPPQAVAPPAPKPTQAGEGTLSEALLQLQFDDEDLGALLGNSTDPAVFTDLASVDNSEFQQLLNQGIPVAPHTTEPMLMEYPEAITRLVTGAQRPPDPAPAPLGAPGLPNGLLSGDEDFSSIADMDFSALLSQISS

B1: ANXA1 protein used for surface plasmon resonance (natural protein, UniProt P04083 1-346, looked up)
chain: MAMVSEFLKQAWFIENEEQEYVQTVKSSKGGPGSAVSPYPTFNPSSDVAALHKAIMVKGVDEATIIDILTKRNNAQRQQIKAAYLQETGKPLDETLKKALTGHLEEVVLALLKTPAQFDADELRAAMKGLGTDEDTLIEILASRTNKEIRDINRVYREELKRDLAKDITSDTSGDFRNALLSLAKGDRSEDFGVNEDLADSDARALYEAGERRKGTDVNVFNTILTTRSYPQLRRVFQKYTKYSKHDMNKVLDLELKGDIEKCLTAIVKCATSKPAFFAEKLHQAMKGVGTRHKALIRIMVSRSEIDMNDIKAFYQKMYGISLCQAILDETKGDYEKILVALCGGN
  Kd: 0.013 µM
